For this assay, the target named is BSA (UniProt P02769 25-607). In words: indirect ELISA, protein coated, anti-6xHis detection, OD450. Background: ELISA stands for enzyme-linked immunosorbent assay.
Chain of BSA (P02769 25-607 limits assumed): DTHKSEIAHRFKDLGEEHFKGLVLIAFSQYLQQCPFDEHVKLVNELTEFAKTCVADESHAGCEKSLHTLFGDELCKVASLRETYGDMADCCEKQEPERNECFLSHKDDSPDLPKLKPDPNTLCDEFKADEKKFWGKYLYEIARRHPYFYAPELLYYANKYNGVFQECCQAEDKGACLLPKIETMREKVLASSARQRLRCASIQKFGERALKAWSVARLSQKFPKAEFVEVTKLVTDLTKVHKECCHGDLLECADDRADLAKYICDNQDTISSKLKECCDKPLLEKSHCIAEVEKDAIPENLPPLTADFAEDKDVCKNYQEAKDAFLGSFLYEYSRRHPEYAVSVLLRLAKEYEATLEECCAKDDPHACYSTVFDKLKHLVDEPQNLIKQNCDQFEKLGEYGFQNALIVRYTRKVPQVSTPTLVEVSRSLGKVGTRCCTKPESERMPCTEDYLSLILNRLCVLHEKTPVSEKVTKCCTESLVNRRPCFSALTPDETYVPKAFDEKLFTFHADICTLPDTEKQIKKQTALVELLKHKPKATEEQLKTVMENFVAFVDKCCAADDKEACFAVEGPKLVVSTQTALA

B1: VHH-A35R纳米抗体 (VHH)
VHH: AVQLVESGGGLAQTGGSLRLSCAASGRAFRDYAMAWFRQAPGKEREFVAAVSKTGYAIRYEDSVKGRFTISRDNAKNTVSLQMASLKVEDTAVYYCAADRTHRLGYSLRVDPLGYDDWGQGTQVTVSS
Turning to B1, the binding result is on record as “no binding”.

The values above are taken from patent publication CN116751285A (UNIV HEBEI NORMAL, dated 2023).
